The source of these data is patent US20200132691A1, “DETECTION AND TARGETING OF TUMOR-PROMOTING NEUTROPHILS” (THE GENERAL HOSPITAL CORPORATION, priority 2017, published 2020).

In data set [1] the test system is neutrophils. In words: Neutrophil counts in wild-type mice treated with DT. Particulars: bone marrow.
Data set [2] deals with splenocytes. Briefly: In vitro assay of DT-mediated direct effects on hematopoietic cells (splenocytes).
The nature of data set [3]: Body weight monitoring for DT-induced toxicity. In kind it is in vivo, mouse. Particulars: DT-treated mice. As to the method:
(§1) Ocn^Cre;Dtr, Ocn^Cre;Dtr/Yfp and control mice lacking either transgene were treated i.p. with DT (100 μl; 20 μg/kg, Sigma-Aldrich) every other day for 9 days with a total of five injections per mouse. In some experiments, osteoblast depletion was performed for 3 consecutive days using DT. For both DT treatment protocols, osteoblast depletion was verified. Body weight was monitored to control for DT-induced toxicity. Osteoblast depletion was verified using histological evaluation of femurs, IHC for osteocalcin and ex vivo whole mount immunofluorescence of Ocn^Cre;Dtr/Yfp mice.

Data set [4] concerns Ocn+ cells. In words: In vivo osteoblast depletion with diphtheria toxin. The arrangement: species or system mouse. Particulars: OcnCre;Dtr or OcnCre;Dtr/Yfp mice; flow cytometry, immunohistochemistry, in situ microscopy, bone histomorphometry. The procedure:
as §1
Background: In flow cytometry, cells or beads pass a laser one at a time.

For the substance diphtheria toxin [DT], the neutrophil counts entry in data set [1] is reported as “maintained”. Besides, the “viability of hematopoietic cells” value in data set [2] (DT concentration used, in vitro DT titration and in vivo cellular staining by flow cytometry) is recorded as “did not affect the viability”. In addition, in data set [2] (cells from OcnCre;Dtr mice, in vitro), the “killing of CD11b+ myeloid cells” value is reported as “not killed”. Moreover, in data set [2] (positive control, in vitro), the “killing of DTR+ cells” value is on record as “ability to kill”. For the same substance, the body weight entry in data set [3] is “did not affect”. Besides, in data set [4], the “Ocn+ cell numbers” value is recorded as “significantly reduced”.
